Legend:
[1] = target: T1, recombinant human IL-6 receptor alpha (IL-6Rα) (human, UniProt P08887 20-365); test: SPR; competitive inhibition: IL-6Rα on a CM5 chip saturated with TCC (100 times its affinity constant; 1.5 μg/mL), then CIRBP as analyte; settings: both partners purified
T1 construct: Interleukin-6 receptor subunit alpha, human; UniProtKB P08887 is printed for the docking; also called rhIL-6Rα; rhIL-6R; source: recombinant
T1 sequence (looked up): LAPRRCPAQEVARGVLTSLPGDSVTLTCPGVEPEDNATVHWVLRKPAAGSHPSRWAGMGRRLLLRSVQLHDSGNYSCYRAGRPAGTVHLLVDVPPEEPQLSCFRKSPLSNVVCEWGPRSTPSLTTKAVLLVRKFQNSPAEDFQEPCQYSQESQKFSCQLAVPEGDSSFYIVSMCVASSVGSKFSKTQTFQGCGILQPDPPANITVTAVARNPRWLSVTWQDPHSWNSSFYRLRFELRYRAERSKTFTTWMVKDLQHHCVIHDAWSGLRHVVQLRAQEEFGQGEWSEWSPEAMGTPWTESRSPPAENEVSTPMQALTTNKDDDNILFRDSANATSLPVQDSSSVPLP

[2] = test system: IL-6R-overexpressing HEK-293 T cells; test: IL-6R mRNA/protein expression in IL-6R-overexpressing HEK-293 T cells; assay type: cell-based, human; settings: CIRP 1 μg/mL for 24 h
Experimental: The overexpression plasmid for IL-6R was constructed by GenScript Biotech using a pcDNA3.1(+)-3xFLAG-P2A-EGFP vector with a broad-spectrum promoter, non-fusion EGFP fluorescence, and Neo (G418) resistance. The final construct was pcDNA3.1(+)-IL6r-3xFLAG-P2A-EGFP, and a control plasmid (pcDNA3.1(+)-3xFLAG-P2A-EGFP) was also generated.
HEK 293 T cells were cultured in six-well plates to 70–80 % confluence. Cells were divided into control and test groups. For transfection, solution A (plasmid diluted in Opti-MEM) and solution B (Lipofectamine 2000, Life Technologies, USA, diluted in Opti-MEM) were mixed at a 1:2 plasmid-to-lipofectamine ratio. After 6 h, the medium was replaced with DMEM, and GFP fluorescence was observed 24–48 h post-transfection to assess efficiency. Cells were divided into PBS, IL-6R, and CIRP (1 μg/mL for 24 h) groups for further analysis.
RNA was extracted using TRIzol reagent (Invitrogen, 210901). RNA was reverse transcribed into cDNA using Novagen's R323-01 100RXN. qRT-PCR was performed to determine the mRNA levels of Nos2, Tnf, Rela, Mcr1, Arg1, Cirbp, […] and Il6. […]
Brain tissue adjacent to the hemorrhagic striatum was homogenized in lysis buffer with protease inhibitors. […] The supernatant was collected for protein quantification using the BCA method. […]

B1: recombinant human CIRP (cold-inducible RNA-binding protein) (natural protein, UniProt Q14011 1-172, looked up)
chain: MASDEGKLFVGGLSFDTNEQSLEQVFSKYGQISEVVVVKDRETQRSRGFGFVTFENIDDAKDAMMAMNGKSVDGRQIRVDQAGKSSDNRSRGYRGGSAGGRGFFRGGRGRGRGFSRGGGDRGYGGNRFESRSGGYGGSRDYYSSRSQSGGYSDRSSGGSYRDSYDSYATHNE
notes: UniProtKB Q14011 is printed for the docking; also called rhCIRP; human CIRBP; source: recombinant
KD in the presence of the competitor TCC (1.5 μg/mL) [1]: 17.7 nM
Il6 mRNA expression ([2]; qRT-PCR n = 3–6): did not show a significant change between groups
Il6ra mRNA and protein expression ([2]; qRT-PCR n = 3–6, western blot n = 9): significant upregulation of Il6ra mRNA and protein expression
